Molecular target: Purified recombinant HIV gp120, biotinylated (HIV) (UniProt P04578)
Experiment: SPR

Substance: soluble recombinant human DC-SIGN extracellular domain (from UniProt Q9NNX6 59-404) (domain or fragment)
- percent less binding in 20 mM glucose than in 5 mM glucose: 33%

Reference: paper PMC3088832
